The target of this assay is CX3CR1 2-21 (UniProt P49238). The assay can be described thus: affinity chromatography on CX3CR1 peptide-Sepharose, dot blot. The following applies: reference: Tau42 not phosphorylated; sites S396.
CX3CR1 2-21, sequence (P49238 whole entry, looked up, tested part not stated): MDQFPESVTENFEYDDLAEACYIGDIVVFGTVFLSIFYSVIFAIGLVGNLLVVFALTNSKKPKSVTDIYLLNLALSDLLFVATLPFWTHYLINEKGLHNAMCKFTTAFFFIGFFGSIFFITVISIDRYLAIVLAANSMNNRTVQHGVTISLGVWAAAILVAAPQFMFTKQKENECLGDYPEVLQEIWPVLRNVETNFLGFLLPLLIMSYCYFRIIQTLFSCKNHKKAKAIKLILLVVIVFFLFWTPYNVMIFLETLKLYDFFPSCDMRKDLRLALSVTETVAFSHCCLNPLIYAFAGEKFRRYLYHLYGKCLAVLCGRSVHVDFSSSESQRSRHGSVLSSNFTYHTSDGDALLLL

As for “Tau (Tau42) (from UniProt P10636-8) Tau42 phosphorylated by GSK-3β”, the “other: elution fraction number” value is listed as “weaker; reference 4”.

Values taken from paper PMC5558740.
